PMC4157578 (Molecular Cell, 2014)

B1: CBP-Mcm3 (subunit of the MCM complex) (natural protein)
chain: MEGSTGFDGDATTFFAPDAVFGDRVRRFQEFLDTFTSYRDSVRSIQVYNSNNAANYNDDQDDADERDLLGDDDGDDLEKEKKAASSTSLNILPHRIIISLDDLREFDRSFWSGILVEPAYFIPPAEKALTDLADSMDDVPHPNASAVSSRHPWKLSFKGSFGAHALSPRTLTAQHLNKLVSVEGIVTKTSLVRPKLIRSVHYAAKTGRFHYRDYTDATTTLTTRIPTPAIYPTEDTEGNKLTTEYGYSTFIDHQRITVQEMPEMAPAGQLPRSIDVILDDDLVDKTKPGDRVNVVGVFKSLGAGGMNQSNSNTLIGFKTLILGNTVYPLHARSTGVAARQMLTDFDIRNINKLSKKKDIFDILSQSLAPSIYGHDHIKKAILLMLMGGVEKNLENGSHLRGDINILMVGDPSTAKSQLLRFVLNTASLAIATTGRGSSGVGLTAAVTTDRETGERRLEAGAMVLADRGVVCIDEFDKMTDVDRVAIHEVMEQQTVTIAKAGIHTTLNARCSVIAAANPVFGQYDVNRDPHQNIALPDSLLSRFDLLFVVTDDINEIRDRSISEHVLRTHRYLPPGYLEGEPVRERLNLSLAVGEDADINPEEHSNSGAGVENEGEDDEDHVFEKFNPLLQAGAKLAKNKGNYNGTEIPKLVTIPFLRKYVQYAKERVIPQLTQEAINVIVKNYTDLRNDDNTKKSPITARTLETLIRLATAHAKVRLSKTVNKVDAKVAANLLRFALLGEDIGNDIDEEESEYEEALSKRSPQKSPKKRQRVRQPASNSGSPIKSTPRRSTASSVNATPSSARRILRFQDDEQNAGEDDNDIMSPLPADEEAELQRRLQLGLRVSPRRREHLHAPEEGSSGPLTEVGTPRLPNVSSAGQDDEQQQSVISFDNVEPGTISTGRLSLISGIIARLMQTEIFEEESYPVASLFERINEELPEEEKFSAQEYLAGLKIMSDRNNLMVADDKVWRV
B2: Mcm7 (subunit of the MCM complex) (natural protein)
chain: MSAALPSIQLPVDYNNLFNEITDFLVTFKQDTLSSDATRNENEDENLDAENIEQHLLEKGPKYMAMLQKVANRELNSVIIDLDDILQYQNEKFLQGTQADDLVSAIQQNANHFTELFCRAIDNNMPLPTKEIDYKDDVLDVILNQRRLRNERMLSDRTNEIRSENLMDTTMDPPSSMNDALREVVEDETELFPPNLTRRYFLYFKPLSQNCARRYRKKAISSKPLSVRQIKGDFLGQLITVRGIITRVSDVKPAVEVIAYTCDQCGYEVFQEVNSRTFTPLSECTSEECSQNQTKGQLFMSTRASKFSAFQECKIQELSQQVPVGHIPRSLNIHVNGTLVRSLSPGDIVDVTGIFLPAPYTGFKALKAGLLTETYLEAQFVRQHKKKFASFSLTSDVEERVMELITSGDVYNRLAKSIAPEIYGNLDVKKALLLLLVGGVDKRVGDGMKIRGDINVCLMGDPGVAKSQLLKAICKISPRGVYTTGKGSSGVGLTAAVMKDPVTDEMILEGGALVLADNGICCIDEFDKMDESDRTAIHEVMEQQTISISKAGINTTLNARTSILAAANPLYGRYNPRLSPLDNINLPAALLSRFDILFLMLDIPSRDDDEKLAEHVTYVHMHNKQPDLDFTPVEPSKMREYIAYAKTKRPVMSEAVNDYVVQAYIRLRQDSKREMDSKFSFGQATPRTLLGIIRLSQALAKLRLADMVDIDDVEEALRLVRVSKESLYQETNKSKEDESPTTKIFTIIKKMLQETGKNTLSYENIVKTVRLRGFTMLQLSNCIQEYSYLNVWHLINEGNTLKFVDDGTMDTDQEDSLVSTPKLAPQTTASANVSAQDSDIDLQDA

Columns and labels:
Assay in all cases: SEC
[1] = molecular target: Mcm6 (subunit of the MCM complex) (S. cerevisiae, UniProt P53091 1-1017)
Chain of Mcm6 (subunit of the MCM complex) (P53091 whole entry, one chain of several): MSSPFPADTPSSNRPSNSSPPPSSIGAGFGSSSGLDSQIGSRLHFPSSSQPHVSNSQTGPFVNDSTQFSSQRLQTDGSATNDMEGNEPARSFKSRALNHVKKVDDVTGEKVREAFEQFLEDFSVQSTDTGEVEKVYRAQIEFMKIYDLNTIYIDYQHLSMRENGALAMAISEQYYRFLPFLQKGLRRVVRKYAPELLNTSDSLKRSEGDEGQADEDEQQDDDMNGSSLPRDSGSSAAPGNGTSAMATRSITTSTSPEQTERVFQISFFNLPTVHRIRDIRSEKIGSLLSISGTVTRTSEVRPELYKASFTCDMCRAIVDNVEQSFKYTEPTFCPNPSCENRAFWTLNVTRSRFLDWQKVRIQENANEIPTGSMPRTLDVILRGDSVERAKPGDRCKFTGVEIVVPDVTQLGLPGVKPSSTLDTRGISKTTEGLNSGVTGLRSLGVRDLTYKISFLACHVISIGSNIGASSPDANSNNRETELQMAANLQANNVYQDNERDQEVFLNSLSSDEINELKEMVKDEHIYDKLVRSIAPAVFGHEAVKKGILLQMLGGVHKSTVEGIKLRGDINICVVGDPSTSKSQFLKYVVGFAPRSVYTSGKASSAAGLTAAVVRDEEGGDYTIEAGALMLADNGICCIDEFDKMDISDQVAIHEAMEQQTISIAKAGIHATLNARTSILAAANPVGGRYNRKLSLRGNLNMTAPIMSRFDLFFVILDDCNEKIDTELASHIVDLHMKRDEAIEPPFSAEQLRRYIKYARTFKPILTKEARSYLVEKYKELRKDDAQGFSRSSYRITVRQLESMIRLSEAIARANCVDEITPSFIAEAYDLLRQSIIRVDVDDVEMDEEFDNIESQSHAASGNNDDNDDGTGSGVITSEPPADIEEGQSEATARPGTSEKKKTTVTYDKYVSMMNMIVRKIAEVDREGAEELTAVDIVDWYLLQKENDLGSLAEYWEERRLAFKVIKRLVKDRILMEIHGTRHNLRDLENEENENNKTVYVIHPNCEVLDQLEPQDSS

[2] = molecular target: B1
[3] = molecular target: B2

Row | binding result [2] | Binder | also measured
1 |  | B1 | binding result [1]: binds
2 | binds | Mcm4 (subunit of the MCM complex) (natural protein) MSQQSSSPTKEDNNSSSPVVPNPDSVPPQLSSPALFYSSSSSQGDIYGRNNSQNLSQGEGNIRAAIGSSPLNFPSSSQRQNSDVFQSQGRQGRIRSSASASGRSRYHSDLRSDRALPTSSSSLGRNGQNRVHMRRNDIHTSDLSSPRRIVDFDTRSGVNTLDTSSSSAPPSEASEPLRIIWGTNVSIQECTTNFRNFLMSFKYKFRKILDEREEFINNTTDEELYYIKQLNEMRELGTSNLNLDARNLLAYKQTEDLYHQLLNYPQEVISIMDQTIKDCMVSLIVDNNLDYDLDEIETKFYKVRPYNVGSCKGMRELNPNDIDKLINLKGLVLRSTPVIPDMKVAFFKCNVCDHTMAVEIDRGVIQEPARCERIDCNEPNSMSLIHNRCSFADKQVIKLQETPDFVPDGQTPHSISLCVYDELVDSCRAGDRIEVTGTFRSIPIRANSRQRVLKSLYKTYVDVVHVKKVSDKRLDVDTSTIEQELMQNKVDHNEVEEVRQITDQDLAKIREVAAREDLYSLLARSIAPSIYELEDVKKGILLQLFGGTNKTFTKGGRYRGDINILLCGDPSTSKSQILQYVHKITPRGVYTSGKGSSAVGLTAYITRDVDTKQLVLESGALVLSDGGVCCIDEFDKMSDSTRSVLHEVMEQQTISIAKAGIITTLNARSSILASANPIGSRYNPNLPVTENIDLPPPLLSRFDLVYLVLDKVDEKNDRELAKHLTNLYLEDKPEHISQDDVLPVEFLTMYISYAKEHIHPIITEAAKTELVRAYVGMRKMGDDSRSDEKRITATTRQLESMIRLAEAHAKMKLKNVVELEDVQEAVRLIRSAIKDYATDPKTGKIDMNLVQTGKSVIQRKLQEDLSREIMNVLKDQASDSMSFNELIKQINEHSQDRVESSDIQEALSRLQQEDKVIVLGEGVRRSVRLNNRV | 
3 |  | Mcm5 (subunit of the MCM complex) (natural protein) MSFDRPEIYSAPVLQGESPNDDDNTEIIKSFKNFILEFRLDSQFIYRDQLRNNILVKNYSLTVNMEHLIGYNEDIYKKLSDEPSDIIPLFETAITQVAKRISILSRAQSANNNDKDPENTSMDTDSLLLNSLPTFQLILNSNANQIPLRDLDSEHVSKIVRLSGIIISTSVLSSRATYLSIMCRNCRHTTSITINNFNSITGNTVSLPRSCLSTIESESSMANESNIGDESTKKNCGPDPYIIIHESSKFIDQQFLKLQEIPELVPVGEMPRNLTMTCDRYLTNKVIPGTRVTIVGIYSIYNSKNGAGSGRSGGGNGGSGVAIRTPYIKILGIQSDVETSSIWNSVTMFTEEEEEEFLQLSRNPKLYEILTNSIAPSIFGNEDIKKAIVCLLMGGSKKILPDGMRLRGDINVLLLGDPGTAKSQLLKFVEKVSPIAVYTSGKGSSAAGLTASVQRDPMTREFYLEGGAMVLADGGVVCIDEFDKMRDEDRVAIHEAMEQQTISIAKAGITTVLNSRTSVLAAANPIYGRYDDLKSPGDNIDFQTTILSRFDMIFIVKDDHNEERDISIANHVINIHTGNANAMQNQQEENGSEISIEKMKRYITYCRLKCAPRLSPQAAEKLSSNFVTIRKQLLINELESTERSSIPITIRQLEAIIRITESLAKLELSPIAQERHVDEAIRLFQASTMDAASQDPIGGLNQASGTSLSEIRRFEQELKRRLPIGWSTSYQTLRREFVDTHRFSQLALDKALYALEKHETIQLRHQGQNIYRSGV | binding result [3]: binds
4 | binds | B2 | 
5 | binds | Mcm2 (subunit of the MCM complex) (natural protein) MSDNRRRRREEDDSDSENELPPSSPQQHFRGGMNPVSSPIGSPDMINPEGDDNEVDDVPDIDEVEEQMNEVDLMDDNMYEDYAADHNRDRYDPDQVDDREQQELSLSERRRIDAQLNERDRLLRNVAYIDDEDEEQEGAAQLDEMGLPVQRRRRRRQYEDLENSDDDLLSDMDIDPLREELTLESLSNVKANSYSEWITQPNVSRTIARELKSFLLEYTDETGRSVYGARIRTLGEMNSESLEVNYRHLAESKAILALFLAKCPEEMLKIFDLVAMEATELHYPDYARIHSEIHVRISDFPTIYSLRELRESNLSSLVRVTGVVTRRTGVFPQLKYVKFNCLKCGSILGPFFQDSNEEIRISFCTNCKSKGPFRVNGEKTVYRNYQRVTLQEAPGTVPPGRLPRHREVILLADLVDVSKPGEEVEVTGIYKNNYDGNLNAKNGFPVFATIIEANSIKRREGNTANEGEEGLDVFSWTEEEEREFRKISRDRGIIDKIISSMAPSIYGHRDIKTAVACSLFGGVPKNVNGKHSIRGDINVLLLGDPGTAKSQILKYVEKTAHRAVFATGQGASAVGLTASVRKDPITKEWTLEGGALVLADKGVCLIDEFDKMNDQDRTSIHEAMEQQSISISKAGIVTTLQARCSIIAAANPNGGRYNSTLPLAQNVSLTEPILSRFDILCVVRDLVDEEADERLATFVVDSHVRSHPENDEDREGEELKNNGESAIEQGEDEINEQLNARQRRLQRQRKKEEEISPIPQELLMKYIHYARTKIYPKLHQMDMDKVSRVYADLRRESISTGSFPITVRHLESILRIAESFAKMRLSEFVSSYDLDRAIKVVVDSFVDAQKVSVRRQLRRSFAIYTLGH | 
